Reference: paper PMC2187783

Experiments:
[1] = biological target: PR97 chimeric class II beta chain (beta1 domain of DP, beta2 domain of DR) (human)
[2] = biological target: RP97 chimeric class II beta chain (beta1 domain of DR, beta2 domain of DP) (human)

Table II, DPa Percent: percentage of cells binding the mAb SG465 [1] | Table II, DPa Percent: percentage of cells binding the mAb SG465 [2] | Table II, DRa Percent: percentage of cells binding the mAb SG465 [1] | Table II, DRa Percent: percentage of cells binding the mAb SG465 [2] | Substance
22% | 0% |  |  | HLA-DP alpha chain (from UniProt P20036 29-260) (natural protein)
 |  | 0% | 54% | HLA-DR alpha chain (from UniProt P01903 26-254) (natural protein)
